Experimental data: patent US20250320252A1 (Scripps Research, published 2025)
Read-outs that look alike come from different tables or passages of the source. Bridge positions count the residues as written; N and C are the ends. Square brackets hold non-standard residues; d marks the D form. Ends that are not written are not given here. C20L5A = not defined here; L5A = not defined here; Aib = CC(C)(N)C(=O)O

T1: human GIP receptor (human, UniProt P48546 22-466)
T1 sequence (looked up): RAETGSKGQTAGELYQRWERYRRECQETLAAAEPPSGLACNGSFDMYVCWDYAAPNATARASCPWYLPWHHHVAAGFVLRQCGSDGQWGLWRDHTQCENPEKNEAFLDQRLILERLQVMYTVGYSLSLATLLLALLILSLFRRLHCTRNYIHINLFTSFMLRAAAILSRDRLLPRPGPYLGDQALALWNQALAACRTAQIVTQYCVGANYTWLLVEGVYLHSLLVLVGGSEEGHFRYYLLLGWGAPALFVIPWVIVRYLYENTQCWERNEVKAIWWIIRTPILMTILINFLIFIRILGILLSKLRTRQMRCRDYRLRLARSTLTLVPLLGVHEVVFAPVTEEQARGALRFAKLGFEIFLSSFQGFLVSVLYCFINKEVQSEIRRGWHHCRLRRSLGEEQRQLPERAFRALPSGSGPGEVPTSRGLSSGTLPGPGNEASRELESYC

T2: cynomolgus monkey GIPR (cynomolgus monkey, UniProt A0A2K5VD75 22-466)
T2 sequence: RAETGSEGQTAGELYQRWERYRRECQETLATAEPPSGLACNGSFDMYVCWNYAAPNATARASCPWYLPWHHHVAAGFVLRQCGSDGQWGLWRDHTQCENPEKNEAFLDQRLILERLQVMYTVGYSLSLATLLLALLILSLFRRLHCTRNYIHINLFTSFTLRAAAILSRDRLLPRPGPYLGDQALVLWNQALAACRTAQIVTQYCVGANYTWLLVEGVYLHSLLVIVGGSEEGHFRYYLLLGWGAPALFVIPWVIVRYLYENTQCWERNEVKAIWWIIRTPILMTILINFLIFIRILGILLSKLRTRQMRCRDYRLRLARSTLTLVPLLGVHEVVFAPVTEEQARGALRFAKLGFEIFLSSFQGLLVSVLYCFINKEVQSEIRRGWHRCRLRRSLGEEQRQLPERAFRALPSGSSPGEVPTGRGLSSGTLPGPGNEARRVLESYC

B1: C(17-24)-C20L5A (peptide)
peptide: Y[Aib]EGTFTSDYSIYLDKCAA[Aib]EFVCWLLAGGPSSGAPPPS-NH2
modifications: linker 17-24 via C20L5A; not fully specified; reading uncertain
B2: wild-type human GIP (ligand)
peptide: YAEGTFISDYSIAMDKIHQQDFVNWLLAQKGKKNDWKHNITQ-NH2
B3: mCMD307 (2050-K4) (peptide)
peptide: Y[Aib]EGTFTSDYSIYKDKQAA[Aib]KFVNWLLAGGPSSGAPPPS-NH2
modifications: bridge 14-21; not fully specified (bridges); also: K4 staple carries PEG-fatty acid
B4: C(17-24)-L5A (peptide)
peptide: Y[Aib]EGTFTSDYSIYLDKCAA[Aib]EFVCWLLAGGPSSGAPPPS-NH2
modifications: linker 17-24 via L5A; not fully specified; reading uncertain

Columns and labels:
Experiment in all cases: cell-based or functional assay
[1] = target: T3, human GLP-1 receptor (human, UniProt P43220 24-463)
[2] = target: T1, human GIP receptor
[3] = target: T3, human GLP-1 receptor; remark: listed apart in the source
[4] = target: T1, human GIP receptor; remark: listed apart in the source
[5] = target: T2, cynomolgus monkey GIPR
[6] = target: dog GIPR (dog)
[7] = target: T3, human GLP-1 receptor; remark: listed apart in the source
[8] = target: T1, human GIP receptor; remark: listed apart in the source
[9] = target: T3, human GLP-1 receptor; remark: listed apart in the source
[10] = target: T1, human GIP receptor; remark: listed apart in the source

| Binder | EC50 of receptor-mediated cAMP synthesis, GLP1R (nM), 02/19 [1] [nM] | EC50 of receptor-mediated cAMP synthesis, GLP1R (nM), 3/25 [1] [nM] | EC50 of receptor-mediated cAMP synthesis, GIPR (nM), 02/19 [2] [nM] | EC50 of receptor-mediated cAMP synthesis, GIPR (nM), 03/25 [2] [nM] | EC50 of receptor-mediated cAMP synthesis, GIPR (nM), 03/26 [2] [nM] | EC50 of receptor-mediated cAMP synthesis, GIPR (nM), average [2] [nM] | EC50 [nM] of receptor-mediated cAMP synthesis [3] [nM] | EC50 [nM] of receptor-mediated cAMP synthesis [4] [nM] | In Vitro Potency GIPR EC50 [nM], Cyno [5] [nM] | In Vitro Potency GIPR EC50 [nM], Dog [6] [nM] | EC50 of receptor-mediated cAMP synthesis, GLP1R (nM), 03/26 [1] [nM] | EC50 of receptor-mediated cAMP synthesis, GLP1R (nM), average [1] [nM] | EC50 [nM] of receptor-mediated cAMP synthesis [7] [nM] | EC50 [nM] of receptor-mediated cAMP synthesis [8] [nM] | EC50 [nM] of receptor-mediated cAMP synthesis [9] [nM] | EC50 [nM] of receptor-mediated cAMP synthesis [10] [nM] |
| --- | --- | --- | --- | --- | --- | --- | --- | --- | --- | --- | --- | --- | --- | --- | --- | --- |
| B1 | 0.07 | 0.1 | 0.04 | 0.02 | 0.03 | 0.03 | 0.11 | 0.05 |  |  |  |  |  |  |  |  |
| B2 |  |  |  |  |  |  |  |  | 0.69 | 0.7 |  |  |  |  |  |  |
| B3 | 0.01 | 0.01 | 0.04 | 0.01 | 0.01 | 0.02 | 0.03 | 0.01 |  |  | 0.01 | 0.01 | 0.01 | 0.02 | 0.03 | 0.01 |
| B4 |  |  |  |  |  |  | 0.11 | 0.05 |  |  |  |  |  |  |  |  |
